Experiments:
Type in all cases: in vitro ADME, hairless mice
[1] = Skin permeation with calcein sodium coating and dissolving solution in combination
Method: A transdermal drug administration apparatus having microneedles of FIG. 9 was used. 70 mg of calcein sodium as a drug was mixed with 930 μL of a 5% aqueous polymer (polyvinyl pyrrolidone, dextran) solution. The whole surface of microneedles was coated with 25 μL of the solution. The applied solution was dried at room temperature for 12 hours. Moreover, no polymer was added to a coating agent containing only water.
(§1) To measure the amount of permeation, the skin was ablated from the trunks of hairless mice and attached to vertical acrylic cells (2.54 cm^2) with the dermis facing a receptor layer. The cells were loaded in a thermostat set to 37° C. The transdermal drug administration apparatus having microneedles of the present invention was affixed to the stratum corneum. Sampling was conducted at a speed of 5.5 mL/hr. after 1 hour and 2 hours and subsequently at 2-hour intervals until the 6th hour. A phosphate-buffered saline (PBS) was used in the receptor layer. A drug content in the receptor solution obtained each time was measured with a fluorophotometer (excitation: 485, fluorescence: 538).
(§2) Animal type: hairless mice (n=3)
(§3) Receptor solution: 4 mL of PBS (Sampling volume: 200 μL/time)
(§4) Area: 2.54 cm^2 (however, the M.N substrate itself is 1 cm^2)
(§5) Dissolving solution: a saline was added dropwise from a dissolving solution reservoir.

[2] = Skin permeation with drug-coated microneedles and dissolving solution in combination (vertical acrylic cells); details: FIG. 12
Method: A transdermal drug administration apparatus having microneedles of FIG. 9 was used. 30% aqueous solution was prepared with 100 mg of BSA (bovine serum albumin) and […] of FITC-BSA (fluorescently labeled bovine serum albumin) as drugs and 350 μL of water and used as a mother liquid to prepare 10% and 20% aqueous solutions. The whole surface of microneedles was coated with each of the prepared 10 to 30% aqueous solutions in an amount of 30 μL/patch. The applied solution was dried at room temperature for 12 hours to prepare 3 kinds in total of coated microneedles (→3 mg/patch, 6 mg/patch, and 9 mg/patch) (FIG. 12).
The drug injection models used as controls are shown (FIG. 13), 15 μL of a 20% aqueous drug (FITC-BSA) solution was added to a dissolving solution without coating microneedles with the drug, and after coating with a 5% aqueous PVA203 solution in an amount of 30 μL/patch, the drug was added.
as §1, with “8th” for “6th”
as §2, §3, §4, §5
PVA203: polyvinyl alcohol (partially saponified, polymerization degree: 300, KURARAY CO., LTD.)

[3] = Skin permeation with drug coating-water-soluble polymer and dissolving solution in combination; details: FIG. 14; for skin permeability: 20 μL dissolving solution in combination
Method: A transdermal drug administration apparatus having microneedles of FIG. 9 was used. 400 mg of BSA (bovine serum albumin) and 400 mg of FITC-BSA (fluorescently labeled bovine serum albumin) as drugs were dissolved in 5 mL of water. Likewise, 800 mg of a polymer (PEO, PVA117) was dissolved in 5 mL of water. Both of the solutions were mixed in equal amounts to prepare a coating solution. The whole surface of microneedles was coated with 25 μL of the coating solution. The applied solution was dried with a drier for 30 minutes. Moreover, no polymer was added to a coating agent containing only water.
as §1, with “8th” for “6th”, “496,” for “485,”, “517).” for “538).”
as §2
Receptor solution: 4 mL of PBS (Sampling volume: 500 μL/time)
as §4, §5
PEO: polyethylene oxide (molecular weight: 900,000, concentration: 2.5%)
PVA117S: polyvinyl alcohol (completely saponified, KURARAY CO., LTD.)

| Molecule | permeability-promoting effects by dropwise addition of the dissolving solution ([1]; dextran used in the coating) | permeability-promoting effects by dropwise addition of the dissolving solution ([1]; polyvinyl pyrrolidone used in the coating) | permeability-promoting effects by dropwise addition of the dissolving solution ([1]; regardless of the presence or absence of the polymer in the coating, FIGS. 15-17) | effect of using the dissolving solution in combination ([2]; amount of drug coating 3 mg (of 3, 6 and 9 mg), dissolving solution fixed to 20 μL) | synergistic effect brought about by the dissolving solution ([2]; amount of drug coating 9 mg, dissolving solution fixed to 20 μL) | skin permeability ([2]; drug-coated microneedles, 20 μL dissolving solution (saline) used in combination) | skin permeability ([3]; only water, no polymer in coating composition) | skin permeability ([3]; polyethylene oxide (molecular weight 900,000) mixed into coating composition) | skin permeability-promoting effects brought about by the addition of the dissolving solution ([3]; poorly soluble polymer PVA117 mixed into coating composition) |
| --- | --- | --- | --- | --- | --- | --- | --- | --- | --- |
| O=C(O)CN(CC(=O)O)Cc1cc2c(cc1O)Oc1cc(O)c(CN(CC(=O)O)CC(=O)O)cc1C21OC(=O)c2ccccc21 [calcein sodium] | promoting effects were also observed | promoting effects were also observed | Permeability-promoting effects were observed |  |  |  |  |  |  |
| FITC-BSA: fluorescently labeled bovine serum albumin, used as model drug in the microneedle coating (mixed with BSA) |  |  |  | highest | no synergistic effect | increased | increased | increased | no skin permeability-promoting effects |

Source: patent US8419708B2, “Transdermal drug administration apparatus having microneedles” (Hisamitsu Pharmaceuticals Co., Inc., priority 2006, dated 2013)
